Data taken from patent US20230212319A1, “NOVEL ANTIGEN BINDING DOMAINS AND SYNTHETIC ANTIGEN RECEPTORS INCORPORATING THE SAME” (University of Southern California, priority 2020, published 2023).

B1: 22125 (protein)
chain: MALPVTALLLPLALLLHAARPEVQLVESGGGLVQAGGSLRLSCAASGRTFSMGWFRQAPGKEREFVAAITYSGGSPYYADSVKGRFTISRDNAKNTVYLQMNSLKPEDTAVYYCAANPTYGSDWNAENWGQGTQVTVSSGTGGGGSGGGGSGGGGSEFDIQMTQSPSSLSASVGDRVTITCKASDHINNWLAWYQQKPGQAPKLLIYGATTLETGVPSRFSGSGSGTDYTLTISSLQPEDFATYYCQQSWNTPWTFGQGTKLEIKRLEDLKNVFPPEVAVFEPSKAEIAHTQKATLVCLATGFYPDHVELSWWVNGKEVHSGVCTDPQPLKEQPALNDSRYCLSSRLRVSATFWQNPRNHFRCQVQFYGLSENDEWTQDRAKPVTQIVSAEAWGRADCGITSASYHQGVLSATILYEILLGKATLYAVLVSALVLMAMVKRKDSRGRAKRSGSGATNFSLLKQAGDVEENPGPTSATMDWIWRILFLVGAATGAHSGPQVQLQESGGGLAQAGGSLRLSCAASGRTFSMGWFRQAPGKEREFVAAITYSGGSPYYASSVRGRFTISRDNAKNTVYLQMNSLKPEDTAVYYCAANPTYGSDWNAENWGQGTQVTVSSGSGGGGSGGGGSGGGGSFEQVQLQQPGAELVKPGASVKMSCKASGYAFSSYWINWMKQKPGQGLEWIGQIYPGDGDTNYNGKFKGRATLTADTSSSTAYMQLSSLTSEDSAVYFCARSITTVVGCAMDYWGQGTSVTVSSTRIQNPDPAVYQLRDSKSSDKSVCLFTDFDSQTNVSQSKDSDVYITDKCVLDMRSMDFKSNSAVAWSNKSDFACANAFNNSIIPEDTFFPSSDVPCDVKLVEKSFETDTNLNFQNLSVIGFRILLLKVAGFNLLMTLRLWSSRAKRSGSGVKQTLNFDLLKLAGDVESNPGPSRGHMTEYKPTVRLATRDDVPRAVRTLAAAFADYPATRHTVDPDRHIERVTELQELFLTRVGLDIGKVWVADDGAAVAVWTTPESVEAGAVFAEIGPRMAELSGSRLAAQQQMEGLLAPHRPKEPAWFLATVGVSPDHQGKGLGSAVVLPGVEAAERAGVPAFLETSAPRNLPFYERLGFTVTADVEVPEGPRTWCMTRKPGA
B2: 22110 (protein)
chain: MALPVTALLLPLALLLHAARPQLQLQESGPGLVKPSETLSLTCTVSGDSISSGDYYWGWIRQPPGKGLEWIGHIYYSGVTYYNPSLKSRVTISVDTSRNQFSLKLSSVTAADTAVYYCTREDSSNWRSRGQGTLVTVSSGTGGGGSGGGGSGGGGSEFDIQMTQSPSSLSASVGDRVTITCKASDHINNWLAWYQQKPGQAPKLLIYGATTLETGVPSRFSGSGSGTDYTLTISSLQPEDFATYYCQQSWNTPWTFGQGTKLEIKRLEDLKNVFPPEVAVFEPSEAEISHTQKATLVCLATGFYPDHVELSWWVNGKEVHSGVCTDPQPLKEQPALNDSRYCLSSRLRVSATFWQNPRNHFRCQVQFYGLSENDEWTQDRAKPVTQIVSAEAWGRADCGFTSESYQQGVLSATILYEILLGKATLYAVLVSALVLMAMVKRKDSRGRAKRSGSGATNFSLLKQAGDVEENPGPTSMDWIWRILFLVGAATGAHSFEQVQLQQPGAELVKPGASVKMSCKASGYAFSSYWINWMKQKPGQGLEWIGQIYPGDGDTNYNGKFKGRATLTADTSSSTAYMQLSSLTSEDSAVYFCARSITTVVGCAMDYWGQGTSVTVSSTRIQNPDPAVYQLRDSKSSDKSVCLFTDFDSQTNVSQSKDSDVYITDKCVLDMRSMDFKSNSAVAWSNKSDFACANAFNNSIIPEDTFFPSPESSCDVKLVEKSFETDTNLNFQNLSVIGFRILLLKVAGFNLLMTLRLWSSRAKRSGSGVKQTLNFDLLKLAGDVESNPGPSRGHMTEYKPTVRLATRDDVPRAVRTLAAAFADYPATRHTVDPDRHIERVTELQELFLTRVGLDIGKVWVADDGAAVAVWTTPESVEAGAVFAEIGPRMAELSGSRLAAQQQMEGLLAPHRPKEPAWFLATVGVSPDHQGKGLGSAVVLPGVEAAERAGVPAFLETSAPRNLPFYERLGFTVTADVEVPEGPRTWCMTRKPGA
B3: 22119 (protein)
chain: MALPVTALLLPLALLLHAARPDIQMTQSPSSLSASVGDRVTITCKASDHINNWLAWYQQKPGQAPKLLIYGATTLETGVPSRFSGSGSGTDYTLTISSLQPEDFATYYCQQSWNTPWTFGQGTKLEIKRLEADVSPKPTIFLPSIAETKLQKAGTYLCLLEKFFPDVIKIHWQEKKSNTILGSQEGNTMKTNDTYMKFSWLTVPEKSLDKEHRCIVRHENNKNGVDQEIIFPPIKTDVITMDPKDNCSKDANDTLLLQLTNTSAYYMYLLLLLKSVVYFAIITCCLLRRTAFCCNGEKSRAKRSGSGATNFSLLKQAGDVEENPGPTSATMDWIWRILFLVGAATGAHSGPQVQLQESGGGLAQAGGSLRLSCAASGRTFSMGWFRQAPGKEREFVAAITYSGGSPYYASSVRGRFTISRDNAKNTVYLQMNSLKPEDTAVYYCAANPTYGSDWNAENWGQGTQVTVSSGSGGGGSGGGGSGGGGSFEQVQLQQPGAELVKPGASVKMSCKASGYAFSSYWINWMKQKPGQGLEWIGQIYPGDGDTNYNGKFKGRATLTADTSSSTAYMQLSSLTSEDSAVYFCARSITTVVGCAMDYWGQGTSVTVSSTRPHTKPSVFVMKNGTNVACLVKEFYPKDIRINLVSSKKITEFDPAIVISPSGKYNAVKLGKYEDSNSVTCSVQHDNKTVHSTDFEVKTDSTDHVKPKETENTKQPSKSCHKPKAIVHTEKVNMMSLTVLGLRMLFAKTVAVNFLLTAKLFFLRAKRSGSGVKQTLNFDLLKLAGDVESNPGPSRGHMTEYKPTVRLATRDDVPRAVRTLAAAFADYPATRHTVDPDRHIERVTELQELFLTRVGLDIGKVWVADDGAAVAVWTTPESVEAGAVFAEIGPRMAELSGSRLAAQQQMEGLLAPHRPKEPAWFLATVGVSPDHQGKGLGSAVVLPGVEAAERAGVPAFLETSAPRNLPFYERLGFTVTADVEVPEGPRTWCMTRKPGA
B4: 22114 (protein)
chain: MALPVTALLLPLALLLHAARPDIQMTQSPSSLSASVGDRVTITCKASDHINNWLAWYQQKPGQAPKLLIYGATTLETGVPSRFSGSGSGTDYTLTISSLQPEDFATYYCQQSWNTPWTFGQGTKLEIKRLEIQNPDPAVYQLRDSKSSDKSVCLFTDFDSQTNVSQSKDSDVYITDKCVLDMRSMDFKSNSAVAWSNKSDFACANAFNNSIIPEDTFFPSSDVPCDVKLVEKSFETDTNLNFQNLSVIGFRILLLKVAGFNLLMTLRLWSSRAKRSGSGVKQTLNFDLLKLAGDVESNPGPTSATMDWIWRILFLVGAATGAHSGPQVQLQESGGGLAQAGGSLRLSCAASGRTFSMGWFRQAPGKEREFVAAITYSGGSPYYASSVRGRFTISRDNAKNTVYLQMNSLKPEDTAVYYCAANPTYGSDWNAENWGQGTQVTVSSGSGGGGSGGGGSGGGGSFEQVQLQQPGAELVKPGASVKMSCKASGYAFSSYWINWMKQKPGQGLEWIGQIYPGDGDTNYNGKFKGRATLTADTSSSTAYMQLSSLTSEDSAVYFCARSITTVVGCAMDYWGQGTSVTVSSTREDLKNVFPPEVAVFEPSKAEIAHTQKATLVCLATGFYPDHVELSWWVNGKEVHSGVCTDPQPLKEQPALNDSRYCLSSRLRVSATFWQNPRNHFRCQVQFYGLSENDEWTQDRAKPVTQIVSAEAWGRADCGITSASYHQGVLSATILYEILLGKATLYAVLVSALVLMAMVKRKDSRGRAKRSGSGATNFSLLKQAGDVEENPGPSRGHMTEYKPTVRLATRDDVPRAVRTLAAAFADYPATRHTVDPDRHIERVTELQELFLTRVGLDIGKVWVADDGAAVAVWTTPESVEAGAVFAEIGPRMAELSGSRLAAQQQMEGLLAPHRPKEPAWFLATVGVSPDHQGKGLGSAVVLPGVEAAERAGVPAFLETSAPRNLPFYERLGFTVTADVEVPEGPRTWCMTRKPGA
B5: CD8SP-BCMA-FHVH-93-G4S-CD19-MOR0028-scFv-hCD8TM-BBZ-T2A-PAC (protein)
chain: ACEVQLLESGGGLIQPGGSLRLSCAASGFTFSSHAMTWVRQAPGKGLEWVSAISGSGDYTHYADSVKGRFTISRDNSKNTVYLQMNSLRAEDSAVYYCAKDEDGGSLLGHRGQGTLVTVSSGTGGGGSGGGGSGGGGSEFINIYNAEPANPSEKNSPEFDIVMTQSPATLSLSPGERATLSCRSSKSLQNVNGNTYLYWFQQKPGQSPQLLIYRMSNLNSGVPDRFSGSGSGTEFTLTISSLEPEDFAVYYCMQHLEYPITFGAGTKLEIKGGGGSGGGGSGGGGSEVQLVESGGGLVKPGGSLKLSCAASGYTFTSYVMHWVRQAPGKGLEWIGYINPYNDGTKYNEKFQGRVTISSDKSISTAYMELSSLRSEDTAMYYCARGTYYYGTRVFDYWGQGTLVTVSSTRTTTPAPRPPTPAPTIASQPLSLRPEACRPAAGGAVHTRGLDFACDIYIWAPLAGTCGVLLLSLVITLYCKRGRKKLLYIFKQPFMRPVQTTQEEDGCSCRFPEEEEGGCELRVKFSRSADAPAYQQGQNQLYNELNLGRREEYDVLDKRRGRDPEMGGKPRRKNPQEGLYNELQKDKMAEAYSEIGMKGERRRGKGHDGLYQGLSTATKDTYDALHMQALPPRSSGSGEGRGSLLTCGDVEENPGPHMTEYKPTVRLATRDDVPRAVRTLAAAFADYPATRHTVDPDRHIERVTELQELFLTRVGLDIGKVWVADDGAAVAVWTTPESVEAGAVFAEIGPRMAELSGSRLAAQQQMEGLLAPHRPKEPAWFLATVGVSPDHQGKGLGSAVVLPGVEAAERAGVPAFLETSAPRNLPFYERLGFTVTADVEVPEGPRTWCMTRKPGA

What was measured:
Format in all cases: cell-based
RAJI-CD19-KO cells = test: JNG assay, co-culture with RAJI-CD19-KO cells; settings: co-culture with Raji-CD19-KO
Outline: (§1)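 Jurkat-NFAT-GFP (JNG) cells stably expressing SAR constructs via lentiviral transduction and puromycin/blasticidin selection were cocultured with target cells at E:T ~1:2 for ~4–18 h. NFAT-driven GFP was measured by FACS versus parental JNG cells; scores +/- to 5+ denote ~5–50% GFP-positive cells.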

RAJI cells = test: JNG assay, co-culture with RAJI cells; settings: co-culture with Raji; for NFAT-GFP ASSAY: Raji: JNG cells expressing construct
Outline: as §1

RS;411 = test: JNG assay, co-culture with RS;411 cells; settings: co-culture with RS411
Outline: as §1

Molecule | NFAT-GFP ASSAY: Raji-CD19-KO (RAJI-CD19-KO cells) | NFAT-GFP ASSAY: Raji (RAJI cells) | NFAT-GFP ASSAY: RS411 (RS;411) | NFAT-GFP ASSAY (JNG): GFP induction, Raji-CD19-KO (RAJI-CD19-KO cells) | NFAT-GFP ASSAY (JNG): GFP induction, Raji (RAJI cells) | NFAT-GFP ASSAY (JNG): GFP induction, RS411 (RS;411)
B1 | 5+ (refer to approximately 5%, 10%, 20%, 30%, 40% and 50% GFP positive cells) | 4+ (refer to approximately 5%, 10%, 20%, 30%, 40% and 50% GFP positive cells) | +/- (refer to approximately 5%, 10%, 20%, 30%, 40% and 50% GFP positive cells) |  |  | 
B2 | 4+ (refer to approximately 5%, 10%, 20%, 30%, 40% and 50% GFP positive cells) | 5+ (refer to approximately 5%, 10%, 20%, 30%, 40% and 50% GFP positive cells) | 4+ (refer to approximately 5%, 10%, 20%, 30%, 40% and 50% GFP positive cells) |  |  | 
B3 | 3+ (refer to approximately 5%, 10%, 20%, 30%, 40% and 50% GFP positive cells) | 4+ (refer to approximately 5%, 10%, 20%, 30%, 40% and 50% GFP positive cells) | 3+ (refer to approximately 5%, 10%, 20%, 30%, 40% and 50% GFP positive cells) |  |  | 
B4 | 5+ (refer to approximately 5%, 10%, 20%, 30%, 40% and 50% GFP positive cells) |  | 5+ (refer to approximately 5%, 10%, 20%, 30%, 40% and 50% GFP positive cells) |  |  | 
B5 |  |  |  | 3+ (refer to approximately 5%, 10%, 20%, 30%, 40% and 50% GFP positive cells) | 4+ (refer to approximately 5%, 10%, 20%, 30%, 40% and 50% GFP positive cells) | 5+ (refer to approximately 5%, 10%, 20%, 30%, 40% and 50% GFP positive cells)
